15 variants from the RNAGym collection of RNA variant scans (doi:10.1093/molbev/msab373) can be followed below.

B1: Azoarcus group I ribozyme (parent)
chain: GUGCCUUGCGCCGGGAAACCACGCAAGGGAUGGUGUCAAAUUCGGCGAAACCUAAGCGCCCGCCCGGGCGUAUGGCAACGCCGAGCCAAGCUUCGGCGCCUGCGCCGAUGAAGGUGUAGAGACUAGACGGCACCCACCUAAGGCAAACGCUAUGGUGAAGGCAUAGUCCAGGGAGUGGCGAAAGUCACACAAACCGG

The variants in this data set derive from B1. The data set can be described thus: reverse-splicing fitness (ratio to wild type); higher = more active; in vitro selection; Mg2+ level not given. Summed up:
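An in vitro group I ribozyme library with randomized positions was T7-transcribed and gel-purified. In triplicate, 10 pmol RNA in EPPS pH 7.5 was reacted with 50 pmoles of a 30-nt RNA substrate for 1 h at 37 °C across several added MgCl2 levels (1–48 mM), then stopped with EDTA. Products were reverse transcribed from a substrate-complementary primer, PCR-amplified and sequenced (HiSeq 4000). Fitness is a variant's read proportion after selection over that before, normalised to wild type.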
In the case of GUGCCUUGCGCCGGGAAACCACGCAAGGGAUGGUGUCAAAUUCGGCGAAACCUAAGCGCCCGCCCGGGCGUAUGGCAACGCAGAGCCAAGCUUCGGCGCCUGCGCCGAUGCAGGUGUAGGGACUAGACGGCACCCACCUAAGGCAAACGUUAUGGUGAAGGCAUAGUCAAGGGAGAGGCGAAAGUCACACAAACCGG [C82A A111C A120G C150U C169A U176A], the reverse-splicing fitness amounted to 0.013.
As for GUGCCUUGCGCCGGGAAACCACGCAAGGGAUGGUGUCAAAUUCGGCGAAACCUAAGCGCCCGCCCGGGCGUAUGGCAACGCGGAGCCAAGCUUCGGCGCCUGCGCCGAUGCAGGUGUAGAGACUAGACGGCACCCACCUAAGGCGAACGGUAUGGUGAAGGCAUAGUCGAGGGAGCGGCGAAAGUCACACAAACCGG [C82G A111C A145G C150G C169G U176C], the figure is 0.0117.
Consider GUGCCUUGCGCCGGGAAACCACGCAAGGGAUGGUGUCAAAUUCGGCGAAACCUAAGCGCCCGCCCGGGCGUAUGGCAACGCCGAGCCAAGCUUCGGCGCCUGCGCCGAUGCAGGUGUAGAGACUAGACGGCACCCACCUAAGGCAAACGCUAUGGUGAAGGCAUAGUCUAGGGAGCGGCGAAAGUCACACAAACCGG [A111C C169U U176C], for which the reverse-splicing fitness was 0.0304.
As for GUGCCUUGCGCCGGGAAACCACGCAAGGGAUGGUGUCAAAUUCGGCGAAACCUAAGCGCCCGCCCGGGCGUAUGGCAACGCCGAGCCAAGCUUCGGCGCCUGCGCCGAUGUAGGUGUAGUGACUAGACGGCACCCACCUAAGGCUAACGAUAUGGUGAAGGCAUAGUCCAGGGAGUGGCGAAAGUCACACAAACCGG [A111U A120U A145U C150A], the figure is 0.0527; as for GUGCCUUGCGCCGGGAAACCACGCAAGGGAUGGUGUCAAAUUCGGCGAAACCUAAGCGCCCGCCCGGGCGUAUGGCAACGCAGAGCCAAGCUUCGGCGCCUGCGCCGAUGGAGGUGUAGUGACUAGACGGCACCCACCUAAGGCCAACGUUAUGGUGAAGGCAUAGUCGAGGGAGCGGCGAAAGUCACACAAACCGG [C82A A111G A120U A145C C150U C169G U176C], 0.0025; as for GUGCCUUGCGCCGGGAAACCACGCAAGGGAUGGUGUCAAAUUCGGCGAAACCUAAGCGCCCGCCCGGGCGUAUGGCAACGCCGAGCCAAGCUUCGGCGCCUGCGCCGAUGAAGGUGUAGAGACUAGACGGCACCCACCUAAGGCAAACGUUAUGGUGAAGGCAUAGUCAAGGGAGCGGCGAAAGUCACACAAACCGG [C150U C169A U176C], 0.0431.
As for GUGCCUUGCGCCGGGAAACCACGCAAGGGAUGGUGUCAAAUUCGGCGAAACCUAAGCGCCCGCCCGGGCGUAUGGCAACGCCGAGCCAAGCUUCGGCGCCUGCGCCGAUGGAGGUGUAGCGACUAGACGGCACCCACCUAAGGCCAACGAUAUGGUGAAGGCAUAGUCUAGGGAGGGGCGAAAGUCACACAAACCGG [A111G A120C A145C C150A C169U U176G], the figure is 0.00433.
The value for GUGCCUUGCGCCGGGAAACCACGCAAGGGAUGGUGUCAAAUUCGGCGAAACCUAAGCGCCCGCCCGGGCGUAUGGCAACGCUGAGCCAAGCUUCGGCGCCUGCGCCGAUGAAGGUGUAGCGACUAGACGGCACCCACCUAAGGCAAACGCUAUGGUGAAGGCAUAGUCUAGGGAGUGGCGAAAGUCACACAAACCGG [C82U A120C C169U] was 0.0213; that for GUGCCUUGCGCCGGGAAACCACGCAAGGGAUGGUGUCAAAUUCGGCGAAACCUAAGCGCCCGCCCGGGCGUAUGGCAACGCCGAGCCAAGCUUCGGCGCCUGCGCCGAUGCAGGUGUAGCGACUAGACGGCACCCACCUAAGGCGAACGGUAUGGUGAAGGCAUAGUCUAGGGAGAGGCGAAAGUCACACAAACCGG [A111C A120C A145G C150G C169U U176A] was 0.0114; that for GUGCCUUGCGCCGGGAAACCACGCAAGGGAUGGUGUCAAAUUCGGCGAAACCUAAGCGCCCGCCCGGGCGUAUGGCAACGCAGAGCCAAGCUUCGGCGCCUGCGCCGAUGUAGGUGUAGUGACUAGACGGCACCCACCUAAGGCGAACGCUAUGGUGAAGGCAUAGUCCAGGGAGGGGCGAAAGUCACACAAACCGG [C82A A111U A120U A145G U176G] was 0.00319.
On to GUGCCUUGCGCCGGGAAACCACGCAAGGGAUGGUGUCAAAUUCGGCGAAACCUAAGCGCCCGCCCGGGCGUAUGGCAACGCGGAGCCAAGCUUCGGCGCCUGCGCCGAUGAAGGUGUAGCGACUAGACGGCACCCACCUAAGGCAAACGGUAUGGUGAAGGCAUAGUCGAGGGAGAGGCGAAAGUCACACAAACCGG [C82G A120C C150G C169G U176A], for which the reverse-splicing fitness stood at 0.0067.
As for GUGCCUUGCGCCGGGAAACCACGCAAGGGAUGGUGUCAAAUUCGGCGAAACCUAAGCGCCCGCCCGGGCGUAUGGCAACGCCGAGCCAAGCUUCGGCGCCUGCGCCGAUGCAGGUGUAGAGACUAGACGGCACCCACCUAAGGCAAACGCUAUGGUGAAGGCAUAGUCUAGGGAGUGGCGAAAGUCACACAAACCGG [A111C C169U], the figure is 0.128; as for GUGCCUUGCGCCGGGAAACCACGCAAGGGAUGGUGUCAAAUUCGGCGAAACCUAAGCGCCCGCCCGGGCGUAUGGCAACGCCGAGCCAAGCUUCGGCGCCUGCGCCGAUGAAGGUGUAGUGACUAGACGGCACCCACCUAAGGCUAACGGUAUGGUGAAGGCAUAGUCGAGGGAGGGGCGAAAGUCACACAAACCGG [A120U A145U C150G C169G U176G], 0.00208; as for GUGCCUUGCGCCGGGAAACCACGCAAGGGAUGGUGUCAAAUUCGGCGAAACCUAAGCGCCCGCCCGGGCGUAUGGCAACGCUGAGCCAAGCUUCGGCGCCUGCGCCGAUGCAGGUGUAGAGACUAGACGGCACCCACCUAAGGCAAACGUUAUGGUGAAGGCAUAGUCCAGGGAGCGGCGAAAGUCACACAAACCGG [C82U A111C C150U U176C], 0.0667.
Consider GUGCCUUGCGCCGGGAAACCACGCAAGGGAUGGUGUCAAAUUCGGCGAAACCUAAGCGCCCGCCCGGGCGUAUGGCAACGCCGAGCCAAGCUUCGGCGCCUGCGCCGAUGCAGGUGUAGUGACUAGACGGCACCCACCUAAGGCAAACGAUAUGGUGAAGGCAUAGUCUAGGGAGCGGCGAAAGUCACACAAACCGG [A111C A120U C150A C169U U176C], for which the reverse-splicing fitness is 0.0062.
